The EC50 is the concentration at which the effect is half-maximal. What is called IC50 is the midpoint of a concentration-inhibition curve.

Test [1] addresses T1, rdANG-2 (canine/dog; Creative Biolab_Vang-3062Lsx) (Canine/Dog, UniProt A0A8J8 19-495, limits assumed).
T1 construct: also called Dog ANG-2
T1 sequence (looked up): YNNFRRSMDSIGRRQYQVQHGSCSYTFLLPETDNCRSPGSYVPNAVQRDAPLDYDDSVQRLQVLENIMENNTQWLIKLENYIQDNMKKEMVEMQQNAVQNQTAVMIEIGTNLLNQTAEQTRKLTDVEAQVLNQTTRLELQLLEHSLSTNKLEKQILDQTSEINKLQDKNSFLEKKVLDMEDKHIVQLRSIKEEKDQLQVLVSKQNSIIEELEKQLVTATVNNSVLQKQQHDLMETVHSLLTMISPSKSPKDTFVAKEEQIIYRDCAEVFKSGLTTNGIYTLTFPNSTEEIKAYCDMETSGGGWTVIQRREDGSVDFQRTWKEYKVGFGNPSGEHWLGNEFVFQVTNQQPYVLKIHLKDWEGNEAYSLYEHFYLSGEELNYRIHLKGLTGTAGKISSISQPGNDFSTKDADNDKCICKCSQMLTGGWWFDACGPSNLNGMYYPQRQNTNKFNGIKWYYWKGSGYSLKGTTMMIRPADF
Nature of the test: ELISA on coated dog ANG-2. (An ELISA detects its analyte on a solid surface through an enzyme-linked reagent.)

Test [2] addresses T2, Recombinant human VEGF165 (Peprotech, Cat #100-20) (human, UniProt P15692-4 27-191).
T2 construct: Bought protein; also called rhVEGF165; rh VEGF165
Kind of test: ELISA; rhVEGF165 coated, anti-human IgG Fc-HRP detection. The text has this: (§1) The binding was detected by HRP-conjugated donkey anti-human IgG Fcγ antibody (Jackson ImmunoResearch Laboratories, Cat #709-035-098).

The target in test [3] is T2, Recombinant human VEGF165 (Peprotech, …). The description is as above. The procedure:
VEGF₁₆₅ was used to coat Corning 9017 medium binding plates. […] Donkey anti-human IgG Fcγ-HRP (Jackson ImmunoResearch Laboratories, Cat #709-035-098) was used for detection and visualized by TMB substrate. OD450 nm readings were measured by Victor 3 with PerkinElmer 1420 Multilabel Counter.
The source holds these as a separate data set.

Test [4] concerns the target T3, Recombinant human ANG-2 (R&D Systems, Cat #623-AN-025/CF) (human, UniProt O15123 19-496, limits assumed).
T3 construct: also called rhANG-2
T3 sequence (looked up): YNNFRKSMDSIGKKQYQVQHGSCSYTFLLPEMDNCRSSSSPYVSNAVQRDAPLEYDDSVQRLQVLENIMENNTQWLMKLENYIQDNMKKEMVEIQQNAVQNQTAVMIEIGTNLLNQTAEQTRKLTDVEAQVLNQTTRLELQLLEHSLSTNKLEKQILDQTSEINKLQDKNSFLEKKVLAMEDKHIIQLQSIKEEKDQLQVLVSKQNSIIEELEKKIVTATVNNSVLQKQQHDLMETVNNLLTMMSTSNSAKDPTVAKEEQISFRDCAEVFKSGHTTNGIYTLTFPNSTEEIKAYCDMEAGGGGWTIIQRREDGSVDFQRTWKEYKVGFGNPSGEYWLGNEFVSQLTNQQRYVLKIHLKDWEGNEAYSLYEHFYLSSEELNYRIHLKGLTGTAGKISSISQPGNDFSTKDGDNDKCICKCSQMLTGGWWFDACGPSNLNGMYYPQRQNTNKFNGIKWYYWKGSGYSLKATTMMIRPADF
Kind of test: ELISA; rhANG-2 (R&D) coated, anti-human IgG Fc-HRP detection.
Source text: as §1

Test [5] concerns the target T2, Recombinant human VEGF165 (Peprotech, …). Kind of test: ELISA; target coated at 1 ug/mL, anti-human IgG Fc-HRP detection. The procedure: (§2) Different target proteins were used to coat Corning 9017 medium binding plates at 1 μg/mL and 100 μl per well. Donkey anti-human IgG Fcγ-HRP was used for detection. OD450 nm readings were measured by Victor 3.
The target of test [6] is T4, His-tagged recombinant human ANG-2 (AcroBiosystems, Cat #AN2-H52H4) (human, UniProt O15123 275-496).
T4 construct: also called rhANG-2; rhANG-2-His; not shown: His tag
T4 sequence (looked up): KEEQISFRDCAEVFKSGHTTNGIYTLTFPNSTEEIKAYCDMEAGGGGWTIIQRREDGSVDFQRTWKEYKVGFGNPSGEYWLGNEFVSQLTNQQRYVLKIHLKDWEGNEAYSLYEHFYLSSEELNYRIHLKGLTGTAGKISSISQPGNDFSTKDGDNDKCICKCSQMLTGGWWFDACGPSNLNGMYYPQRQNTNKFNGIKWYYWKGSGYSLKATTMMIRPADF
Nature of the test: ELISA; rhANG-2 (AcroBiosystems) coated, anti-human IgG Fc-HRP detection. The procedure: Donkey anti-human IgG Fcγ-HRP (Jackson ImmunoResearch Laboratories, Cat #709-035-098) was used for detection and visualized by TMB substrate. OD450 nm readings were measured by Victor 3 with PerkinElmer 1420 Multilabel Counter.

The target of test [7] is T2, Recombinant human VEGF165 (Peprotech, …). Kind of test: competition ELISA; rhVEGF165 coated, competitor biotinylated rhVEGF R2/KDR. Here is the method: The mixture was added to ELISA binding plates which contained rhVEGF₁₆₅ coating. […] The receptor binding was detected by HRP-conjugated streptavidin (Jackson ImmunoResearch Laboratories, Cat #016-030-084) and visualized by TMB substrate.

Test [8] shares this target. Nature of the test: ELISA on rhVEGF165; biotinylated anti-VpreB antibody and streptavidin-HRP detection.
The target in test [9] is T4, His-tagged recombinant human ANG-2 …. Nature of the test: competition ELISA; IC50 ratio against Faricimab for inhibition of ANG-2-Tie-2 binding.
Test [10] addresses T5, rhVEGF-C (AcroBio_VEC-H4225) (human, UniProt P49767 103-227, limits assumed).
T5 construct: domain: PDGF domain; Bought protein; not shown: His tag
T5 sequence (looked up): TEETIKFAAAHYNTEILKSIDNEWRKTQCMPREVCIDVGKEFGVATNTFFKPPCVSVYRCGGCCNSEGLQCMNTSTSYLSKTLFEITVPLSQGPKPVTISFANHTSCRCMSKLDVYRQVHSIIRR
Kind of test: ELISA: rhVEGF-C_AcroBio coated at 1 ug/mL, RO-101_Sample 1 titrated, detected with anti-human IgG Fc-gamma-HRP. Here is the method: as §2

Values joined by “and” are separate entries in the source; they are usually repeats but may differ in a detail not shown here. Equal values may be shown once.

B1: RO-101 VEGF/ANG-2 bispecific surrobody (bispecific antibody, human IgG1, L234A L235A)
heavy 1: not shown
heavy 2: EVQLVESGGGLVKPGGSLRLSCAASGFTFSSYGMHWVRQAPGKGLEWVAGISADSGDKNYADSVKGRFTISRDNAKNSLYLQMNSLRAEDTAVYYCAKEFISWIYTFDYLDYWGQGTLVTVSSASTKGPSVFPLAPSSKSTSGGTAALGCLVKDYFPEPVTVSWNSGALTSGVHTFPAVLQSSGLYSLSSVVTVPSSSLGTQTYICNVNHKPSNTKVDKKVEPKSCDKTHTCPPCPAPEAAGGPSVFLFPPKPKDTLMISRTPEVTCVVVDVSHEDPEVKFNWYVDGVEVHNAKTKPREEQYNSTYRVVSVLTVLHQDWLNGKEYKCKVSNKALPAPIEKTISKAKGQPREPQVCTLPPSRDELTKNQVSLSCAVKGFYPSDIAVEWESNGQPENNYKTTPPVLDSDGSFFLVSKLTVDKSRWQQGNVFSCSVMHEALHNHYTQKSLSLSPG
light: QPVLHQPPAMSSALGTTIRLTCTLRNDHDIGVYSVYWYQQRPGHPPRFLLRYFSQSDKSQGPQVPPRFSGSKDVARNRGYLSISELQPEDEAMYYCAMGARSSVTHVFGSGTQLTVLSQPKATPSVTLFPPSSEELQANKATLVCLMNDFYPGILTVTWKADGTPITQGVEMTTPSKQSNNKYAASSYLSLTPEQWRSRRSYSCQVMHEGSTVEKTVAPAECS
notes: Format SgG1; also called Sample 1
On to B1, for which the EC50 in test [1] is 0.0135 nM; in test [2], 0.0401 nM and 0.0556 nM and 0.0417 nM; in [3], 0.0231 nM; in [4], 0.0536 nM and 0.0498 nM and 0.0449 nM; in [5], 0.0122 nM; in [6], 0.0118 nM and 0.0138 nM. Also, the EC50 in [8] stood at 0.0057 nM. Besides, in test [7], the IC50 worked out at 1.99 nM. Further, the Fold in test [9] was found to be 17.2 fold. The binding result in [10] is reported as “no binding (tested: 100 nM (Log(nM) 2))”.

These data come from US20250250330A1 (REVOPSIS THERAPEUTICS, published 2025).
